From ChEMBL document CHEMBL2074044, “Two distinct mechanisms for bilirubin glucuronide transport by rat bile canalicular membrane vesicles. Demonstration of defective ATP-dependent transport in rats (TR-) with inherited conjugated hyperbilirubinemia” (J Clin Invest, 1992) come the findings set out here.

Substrate in this series: C=CC1=C(C)/C(=C/c2[nH]c(Cc3[nH]c(/C=C4\NC(=O)C(C)=C4C=C)c(C)c3CCC(=O)O[C@@H]3O[C@@H](C(=O)O)[C@H](O)[C@@H](O)[C@@H]3O)c(CCC(=O)O[C@@H]3O[C@H](C(=O)O)[C@H](O)[C@H](O)[C@@H]3O)c2C)NC1=O
Description: TP_TRANSPORTER: uptake in bile canalicular membranes from Wistar rat. The format is functional, cell membranes, Bile canalicular membrane.

B1: ATP-binding cassette sub-family C member 2 (Rattus norvegicus) (protein)
chain: MDKFCNSTFWDLSLLESPEADLPLCFEQTVLVWIPLGFLWLLAPWQLYSVYRSRTKRSSITKFYLAKQVFVVFLLILAAIDLSLALTEDTGQATVPPVRYTNPILYLCTWLLVLAVQHSRQWCVRKNSWFLSLFWILSVLCGVFQFQTLIRALLKDSKSNMAYSYLFFVSYGFQIVLLILTAFSGPSDSTQTPSVTASFLSSITFSWYDRTVLKGYKHPLTLEDVWDIDEGFKTRSVTSKFEAAMTKDLQKARQAFQRRLQKSQRKPEATLHGLNKKQSQSQDVLVLEEAKKKSEKTTKDYPKSWLIKSLFKTFHVVILKSFILKLIHDLLVFLNPQLLKLLIGFVKSSNSYVWFGYICAILMFAVTLIQSFCLQSYFQHCFVLGMCVRTTVMSSIYKKALTLSNLARKQYTIGETVNLMSVDSQKLMDATNYMQLVWSSVIQITLSIFFLWRELGPSILAGVGVMVLLIPVNGVLATKIRNIQVQNMKNKDKRLKIMNEILSGIKILKYFAWEPSFQEQVQGIRKKELKNLLRFGQLQSLLIFILQITPILVSVVTFSVYVLVDSANVLNAEKAFTSITLFNILRFPLSMLPMVTSSILQASVSVDRLERYLGGDDLDTSAIRRVSNFDKAVKFSEASFTWDPDLEATIQDVNLDIKPGQLVAVVGTVGSGKSSLVSAMLGEMENVHGHITIQGSTAYVPQQSWIQNGTIKDNILFGSEYNEKKYQQVLKACALLPDLEILPGGDMAEIGEKGINLSGGQKQRVSLARAAYQDADIYILDDPLSAVDAHVGKHIFNKVVGPNGLLAGKTRIFVTHGIHFLPQVDEIVVLGKGTILEKGSYRDLLDKKGVFARNWKTFMKHSGPEGEATVNNDSEAEDDDDGLIPTMEEIPEDAASLAMRRENSLRRTLSRSSRSSSRRGKSLKNSLKIKNVNVLKEKEKEVEGQKLIKKEFVETGKVKFSIYLKYLQAVGWWSILFIILFYGLNNVAFIGSNLWLSAWTSDSDNLNGTNNSSSHRDMRIGVFGALGLAQGICLLISTLWSIYACRNASKALHGQLLTNILRAPMRFFDTTPTGRIVNRFSGDISTVDDLLPQTLRSWMMCFFGIAGTLVMICMATPVFAIIIIPLSILYISVQVFYVATSRQLRRLDSVTKSPIYSHFSETVTGLPIIRAFEHQQRFLAWNEKQIDINQKCVFSWITSNRWLAIRLELVGNLVVFCSALLLVIYRKTLTGDVVGFVLSNALNITQTLNWLVRMTSEAETNIVAVERISEYINVENEAPWVTDKRPPADWPRHGEIQFNNYQVRYRPELDLVLKGITCNIKSGEKVGVVGRTGAGKSSLTNCLFRILESAGGQIIIDGIDVASIGLHDLRERLTIIPQDPILFSGSLRMNLDPFNKYSDEEVWRALELAHLRSFVSGLQLGLLSEVTEGGDNLSIGQRQLLCLGRAVLRKSKILVLDEATAAVDLETDSLIQTTIRKEFSQCTVITIAHRLHTIMDSDKIMVLDNGKIVEYGSPEELLSNRGSFYLMAKEAGIENVNHTEL
For B1, the Michaelis-Menten constant (Km) worked out at 71 µM.

By Km is commonly meant the concentration of substrate that gives half-maximal velocity.
